Test results published in PMC8096248.

Key:
[1] = target: family-D DNA polymerase (PolD), DP1–DP2 complex, T. kodakarensis, recombinant wild type (Thermococcus kodakarensis) (UniProt Q5JET0); test: SPR
PolD (DP1-DP2);PCNA1 = PolD (DP1-DP2);PCNA1 (Thermococcus kodakarensis;Thermococcus …, UniProt Q5JET1;Q5JET0;Q5JET0;Q5JF32 1-735;1-963;1438-1798;1-249, |); test: gel filtration
PolD cPIP mutant;PCNA1 = PolD cPIP mutant;PCNA1 (Thermococcus kodakarensis;Thermococcus …, UniProt Q5JET1;Q5JET0;Q5JF32 1-735;1-963+1438-1798;1-249, L1792A;F1795A;F1796A;internal_change|); test: gel filtration

B1: PriL, large subunit of primase, T. kodakarensis, recombinant (natural protein)
chain: MLDPFGKRAESLIREEFGDLLALLERVPSAISVEEPISLVSWMLESENPPQELVEVDNLEELRDLFKFYALLGAASISPYGLEAEVVKRATLRLYSERIKASKNLSETMLPVVPVGENEIPHNDLNILERRMDRNLSPEEKEKLKIKYKIPIKDLLNLWGSSLKEVYIRNGYAYLRWETALKMWEKAFEKRFERAVNILYEYRDELPEFYHRLREKLEEIAEEYFKERGEMFKGTASPLRFDLFPPCVKEALKGVPAGMRNYAITVLLTSFLSYARICPNPPKKDVRIKDCINDLKIIEEEILPVIIEAGNRCKPPLFEDQPHEIKNIWYHLGFGLTDSPTMEDSGNSTWYFPPNCDKIRANAPQLCKPDKYCRGIKNPLSYYLKRLYLEGKKKEGETSE
Kd [1]: 160 nM

B2: PriS, small subunit of primase, T. kodakarensis, recombinant (natural protein)
chain: MSKLLREVTPEERRLYYSGEWDAKKLPEFIVESIERREFGFDHTGEGPSDRKNAFSDVRDLEDYIRATAPYAAYSSVAFYRNPQEMEGWLGAELVFDIDAKDLPLRRCQNEHPSGQVCPICLEDAKELARDTLIILKEDFGFENIHVVYSGRGYHIRVIDEWALKLDSKARERILSYVSAAEEVTFDDIQKRYIMLSSGYFRVFRLRFGYFIQRINENHLKNIGLKRSTAEKLLDEKTRQDIVEKFVNKGLLAAFPEGVGYRTLLRLFGLSTTFSKAYFDGRVTVDLKRILRLPSTLHSKVGLVATYIGSDEKRLEKFDPFKDAVPEFRKEEVQKAYQEWKELHEG
Kd [1]: 1400 nM

B3: primed DNA d29/d45 (dsDNA)
DNA 1: GGTACCGGGCCCCCCCTCGAGGTCGACGG
DNA 2: ATCAAGCTTATCGATACCGTCGACCTCGAGGGGGGGCCCGGTACC
modifications: 3'-OH of d29 replaced by NH2
binding result (PolD (DP1-DP2);PCNA1): binds | binding result (PolD cPIP mutant;PCNA1): binds
